The record followed here is patent US20250145720A1.

As a reminder, the Kd is the concentration at which binding is half-saturated.

Assay [1] concerns the target human complement component C1q (human) (UniProt P02745). Nature of the assay: FACS, C1q on antibody-opsonized Daudi cells, ranking table. On the technique in general: A flow cytometer gives signals particle by particle.
Assay [2] shares this target. Nature of the assay: FACS, C1q on antibody-opsonized Daudi cells, average.
For assay [3] the target is unchanged. Nature of the assay: cell-based or functional assay.
Assay [4] has the same target. Nature of the assay: FACS, C1q on antibody-opsonized Daudi cells, Exp. 8.
Assay [5] shares this target. Nature of the assay: FACS, C1q on antibody-opsonized Daudi cells, Exp. 7.
Assay [6] has the same target. Nature of the assay: FACS, C1q on antibody-opsonized Daudi cells, Exp. 5; no reliable fit, too weak binding.
Assay [7] has the same target. Nature of the assay: FACS, C1q on antibody-opsonized Daudi cells, Exp. 11; no reliable fit, too weak binding.
Assay [8] shares this target. Nature of the assay: FACS, C1q on antibody-opsonized Daudi cells, average; no reliable fit, too weak binding.
Assay [9] has the same target. Nature of the assay: FACS, C1q on antibody-opsonized Daudi cells, ranking table; no reliable fit.
Assay [10] has the same target. Nature of the assay: FACS, C1q on antibody-opsonized Daudi cells, Exp. 11.
Assay [11] has the same target. Nature of the assay: FACS, C1q on antibody-opsonized Daudi cells, Exp. 5.
Assay [12] has the same target. Nature of the assay: FACS, C1q on antibody-opsonized Daudi cells, Exp. 6.
Assay [13] shares this target. Nature of the assay: FACS, C1q on antibody-opsonized Daudi cells, Exp. 10.
For assay [14] the target is unchanged. Nature of the assay: FACS, C1q on antibody-opsonized Daudi cells, Exp. 6; no reliable fit, too weak binding.
Assay [15] has the same target. Nature of the assay: FACS, C1q on antibody-opsonized Daudi cells, Exp. 9.
For assay [16] the target is unchanged. Nature of the assay: FACS, C1q on antibody-opsonized Daudi cells, average (row shifted one column to the left).

human complement component C1q (human), sequence (P02745 23-245 limits assumed, chain 1 of 3): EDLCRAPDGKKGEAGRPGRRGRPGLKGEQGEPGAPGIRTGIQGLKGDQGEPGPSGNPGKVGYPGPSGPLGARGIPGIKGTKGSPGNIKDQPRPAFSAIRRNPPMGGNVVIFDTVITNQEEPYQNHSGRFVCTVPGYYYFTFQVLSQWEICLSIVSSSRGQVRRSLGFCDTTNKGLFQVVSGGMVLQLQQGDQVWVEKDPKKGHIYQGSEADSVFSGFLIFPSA
human complement component C1q (human), sequence (P02746 28-253 limits assumed, chain 2 of 3, further chain): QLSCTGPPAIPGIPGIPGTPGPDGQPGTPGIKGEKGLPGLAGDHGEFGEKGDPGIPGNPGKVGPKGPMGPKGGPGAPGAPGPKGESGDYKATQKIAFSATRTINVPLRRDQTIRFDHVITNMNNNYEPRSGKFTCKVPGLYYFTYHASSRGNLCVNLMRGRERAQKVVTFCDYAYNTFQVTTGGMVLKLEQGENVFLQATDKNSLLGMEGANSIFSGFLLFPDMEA
human complement component C1q (human), sequence (P02747 29-245 limits assumed, chain 3 of 3, further chain): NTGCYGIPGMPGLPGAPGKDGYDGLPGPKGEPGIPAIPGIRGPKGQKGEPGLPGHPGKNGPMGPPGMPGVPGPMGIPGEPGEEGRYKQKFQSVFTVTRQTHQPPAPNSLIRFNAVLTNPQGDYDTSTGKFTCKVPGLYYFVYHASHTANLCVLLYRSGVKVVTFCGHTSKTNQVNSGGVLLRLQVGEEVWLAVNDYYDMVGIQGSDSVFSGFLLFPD

For IgG1-7D8-E382R (antibody), the Kd in assay [1] worked out at 2.3 nM; in [2], 2.3 nM; in assay [4], 1.13 nM; in [5], 1.18 nM. Besides, in [3], the CH50 (C1q concentration giving 50% lysis), CDC on Raji cells in C1q-depleted serum was 0.77 µg/mL. For the same substance, the EC50 of CDC on Daudi cells, 20% normal human serum in assay [3] is 0.76 µg/mL. This substance returned an EC50 of CDC on Raji cells, 20% normal human serum in assay [3] of 2.96 µg/mL.
As for IgG1-7D8-Y436C (antibody), the dissociation constant (Kd) in assay [6] is 2420 nM; in [7], 128 nM; in [8], 1270 nM; in [9], 1270 nM. The EC50 of CDC on Daudi cells, 20% normal human serum in assay [3] stood at 1.9 µg/mL. Besides, in assay [3], the EC50 of CDC on Raji cells, 20% normal human serum was 11.9 µg/mL.
For IgG1-7D8-H310K (antibody), the Kd in assay [10] turned out to be 216 nM; in assay [1], 124 nM; in [11], 32.4 nM; in assay [2], 124 nM. The CH50 (C1q concentration giving 50% lysis), CDC on Raji cells in C1q-depleted serum in assay [3] is over 30 µg/mL. Further, the EC50 of CDC on Daudi cells, 20% normal human serum in assay [3] is 3.03 µg/mL. This substance also showed an EC50 of CDC on Raji cells, 20% normal human serum in assay [3] of 19.3 µg/mL.
IgG1-7D8-Q438D (antibody): the Kd was determined as 667 nM in assay [10], 717 nM in assay [1], 767 nM in [11] and 717 nM in assay [2]. Besides, in assay [3], the CH50 (C1q concentration giving 50% lysis), CDC on Raji cells in C1q-depleted serum is over 30 µg/mL. Further, in assay [3], the EC50 of CDC on Daudi cells, 20% normal human serum stood at 2.61 µg/mL. In addition, the EC50 of CDC on Raji cells, 20% normal human serum in assay [3] was found to be 19.5 µg/mL.
For IgG1-7D8-I253D/H433A (antibody), the dissociation constant Kd in assay [12] was found to be 10300 nM; in assay [10], 246 nM; in assay [2], 5290 nM; in assay [9] it was 5290 nM. The substance also displayed a CH50 (C1q concentration giving 50% lysis), CDC on Raji cells in C1q-depleted serum in assay [3] of over 30 µg/mL. The substance further showed an EC50 of CDC on Daudi cells, 20% normal human serum in assay [3] of 4.77 µg/mL. This substance registered an EC50 of CDC on Raji cells, 20% normal human serum in [3] of over 30 µg/mL.
As to IgG1-7D8-K439E/S440K (antibody), the Kd in [12] stood at 4.6 nM; in assay [1], 2.6 nM; in [13], 2.9 nM; in assay [2], 2.6 nM; in assay [4], 1.01 nM; in assay [5], 1.63 nM. Also, the CH50 (C1q concentration giving 50% lysis), CDC on Raji cells in C1q-depleted serum in assay [3] was determined as 0.09 µg/mL. Also, in [3], the EC50 of CDC on Daudi cells, 20% normal human serum was found to be 0.33 µg/mL. The EC50 of CDC on Raji cells, 20% normal human serum in assay [3] turned out to be 1.34 µg/mL.
For the substance IgG1-7D8-H433D (antibody), the dissociation constant (Kd) in assay [7] amounted to 2690 nM; in [8], 1960 nM; in [9], 1960 nM; in assay [14], 1230 nM. Also, the CH50 (C1q concentration giving 50% lysis), CDC on Raji cells in C1q-depleted serum in [3] is over 30 µg/mL. In [3], this substance displayed an EC50 of CDC on Daudi cells, 20% normal human serum of 4.73 µg/mL. This substance registered an EC50 of CDC on Raji cells, 20% normal human serum in [3] of over 30 µg/mL.
With Ofatumumab (antibody), the Kd in [12] was 5.4 nM; in [15], 12.5 nM; in assay [13], 12.8 nM; in assay [2], 7.2 nM; in assay [4] it was 2.7 nM.
Turning to IgG1-7D8-H433R (antibody), the Kd stood at 3 nM in [16]; 3 nM in assay [1]; 5.69 nM in assay [15]; 1.6 nM in assay [13]; 1.78 nM in assay [4]; 0.72 nM in assay [5]. In addition, in assay [3], the CH50 (C1q concentration giving 50% lysis), CDC on Raji cells in C1q-depleted serum turned out to be 0.16 µg/mL. In assay [3], this substance displayed an EC50 of CDC on Daudi cells, 20% normal human serum of 0.33 µg/mL. Further, the EC50 of CDC on Raji cells, 20% normal human serum in [3] amounted to 1.42 µg/mL.
